According to US6579848B1, “Depigmenting activity of agouti signal protein and peptides thereof” (The United States of America as represented by the …, priority 1995, dated 2003):

Legend:
[1] = tested on: tyrosinase; test: Northern blotting of tyrosinase RNA in melan-a cells; assay type: cell-based, murine; conditions: for RNA level of tyrosinase: 5 days
Protocol: (§1) These techniques were performed as described previously (Aroca et al., 1993). Briefly, 2.0 μg of mRNA, isolated using a total RNA isolation kit and mRNA purification kit (Promega, Madison, Wis.), were electrophoresed and then blotted to Sure-Blot nylon membranes (Oncor, Gaithersburg, Md.), hybridized with ^32P-labeled probes, dehybridized and rehybridized with other probes again as necessary. TYRS-J, the probe specific for tyrosinase, was kindly provided by Drs. H. Yamamoto and T. Takeuchi, Sendai, Japan and is described in Yamamoto et al Japan J. Genetics Vol 62:271-274, 1987. pMT4, specific for TRP1, was provided by Dr. S. Shibahara, Sendai, Japan and is described in Shibahara, S. et al Nucleic Acid Res. Vol 14:2413-2427, 1986. TRP2a, specific for TRP2 was provided by Dr. I. Jackson, Edinburgh, Scotland and is described in Jackson, I et al. EMBO Vol 11:527-535, 1992. gp100, specific for silver, was provided by Dr. Y. Kawakami, Bethesda, Md. and is described in Kawakami et al PNAS, Vol. 91, 6458-6462, 1994.
(§2) Recombinant agouti protein was purified from baculovirus system by Dr. Michael Ollmann in Dr. Gregory Barsh's laboratory by methods known in the art. 2×10^6 cells were seeded per 15 cm diameter dish. The medium was changed everyday, and fresh agouti protein and/or αMSH added everyday usually at 10 nM. To examine transcriptional regulation, total RNA was isolated and Northern blotting performed by methods described in Example 1. The A26 probe to the MSH-R was provided by Dr. R. Cone and is described in Mountjoy et al. Science 257:1248-1251, 1992. At the translational level, metabolic labeling was used in conjunction with immunoprecipitation as described in Example 1. Western blotting and enzyme assay was used to examine function.
First, it was determined whether the agouti protein had any effect on tyrosinase expression by Northern blotting. After 24 hours, the cells were harvested, total RNA isolated and hybridized with a probe for tyrosinase and detected by a phosphoimager. The activity of each band was measured by phosphoimager and the % control was corrected using GAPDH as a standard. […] It should be noted that in vivo, pheomelanin is synthesized within 24 hours after agouti RNA is apparent. Longer incubation times were also examined. 10 nM of agouti protein was added for 1, 2 or 4 days.
Total RNA was extracted from cells using an RNeasy total RNA isolation kit (QIAGEN, Catsworth, Calif.), following the manufacturer's instructions. 20 μg of total RNA was denatured, electrophoresed through 1.0% agarose gels, and transferred overnight at 23° C. to SureBlot nylon hybridization membranes (Oncor, Gaithersburg, Md.) in the standard manner. […]

[2] = tested on: TRP1; test: Northern blotting of TRP1 RNA in melan-a cells; assay type: cell-based, murine; conditions: for RNA level of TRP1: 10 nM, 5 days
Protocol: as §1, §2
The effects of agouti protein on expression of TRP1, TRP2, and the MSH receptor were examined.
Total RNA was extracted from cells using an RNeasy total RNA isolation kit (QIAGEN, Catsworth, Calif.), following the manufacturer's instructions. […]

Row | Molecule | RNA level of tyrosinase ([1]; 10 nM) | RNA level of TRP1 [2] | expression of tyrosinase (RNA) ([1]; 10 nM, 2 or 4 days incubation) | expression of tyrosinase (RNA, % control corrected using GAPDH) ([1]; 24 hours, 10 nM and 1 nM) | level of TRP1 RNA ([2]; 24 hours, different concentrations)
1 | α-melanocyte stimulating hormone [MSH, reference compound] | almost a twofold increase | no significant increase | – | – | –
2 | agouti protein: Recombinant murine agouti signal protein purified from a baculovirus expression system (protein) MDVTRLLLATLVSFLCFFTVHSHLALEETLGDDRSLRSDSSMNSLDFSSVSIVALNKKSKKISRKEAEKRKRSSKKKASMKKVARPPPPSPCVATRDSCKPPAPACCDPCASCQCRFFGSACTCRVLNPNC | nearly a fivefold decrease | nearly a fivefold decrease | complete inhibition by day 2 | significant dose dependent decreases | reduced, but not to the same extent as tyrosinase RNA
